Assay results reported in PMC3505452 (Science (New York, N.Y.), 2012).

Assays:
UVR8^R286A (Arabidopsis) = UVR8^R286A (Arabidopsis) (UniProt Q9FN03); assay: SEC
UVR8^R146A (Arabidopsis) = UVR8^R146A (Arabidopsis) (UniProt Q9FN03); assay: SEC
[1] = biological target: T1, UVR8 (UV … LOCUS 8), recombinant Arabidopsis, full-length wild type (Arabidopsis), Q9FN03; assay: SEC-MALS; conditions: remark: other sources report otherwise
T1 chain: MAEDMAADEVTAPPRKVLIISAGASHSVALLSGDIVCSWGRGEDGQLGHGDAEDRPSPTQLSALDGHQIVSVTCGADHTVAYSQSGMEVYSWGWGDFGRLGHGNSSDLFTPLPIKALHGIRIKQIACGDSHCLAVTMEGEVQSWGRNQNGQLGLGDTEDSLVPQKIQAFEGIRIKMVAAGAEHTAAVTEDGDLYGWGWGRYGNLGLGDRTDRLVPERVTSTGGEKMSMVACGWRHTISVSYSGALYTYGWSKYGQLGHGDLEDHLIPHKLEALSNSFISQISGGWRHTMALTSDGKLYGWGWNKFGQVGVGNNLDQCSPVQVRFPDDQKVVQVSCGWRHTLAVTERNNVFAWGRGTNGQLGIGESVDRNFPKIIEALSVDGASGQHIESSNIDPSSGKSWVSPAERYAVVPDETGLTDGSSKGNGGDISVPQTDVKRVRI

[2] = biological target: T1, UVR8 (UV … LOCUS 8), recombinant …; assay: SDS-PAGE without sample boiling; conditions: remark: other sources report otherwise
[3] = biological target: T1, UVR8 (UV … LOCUS 8), recombinant …; assay: SAXS; conditions: remark: other sources report otherwise
[4] = biological target: T1, UVR8 (UV … LOCUS 8), recombinant …; assay: SEC; conditions: remark: other sources report otherwise
[5] = biological target: T2, UVR8^W233F (Arabidopsis), Q9FN03; assay: SEC; conditions: remark: other sources report otherwise
T2 chain: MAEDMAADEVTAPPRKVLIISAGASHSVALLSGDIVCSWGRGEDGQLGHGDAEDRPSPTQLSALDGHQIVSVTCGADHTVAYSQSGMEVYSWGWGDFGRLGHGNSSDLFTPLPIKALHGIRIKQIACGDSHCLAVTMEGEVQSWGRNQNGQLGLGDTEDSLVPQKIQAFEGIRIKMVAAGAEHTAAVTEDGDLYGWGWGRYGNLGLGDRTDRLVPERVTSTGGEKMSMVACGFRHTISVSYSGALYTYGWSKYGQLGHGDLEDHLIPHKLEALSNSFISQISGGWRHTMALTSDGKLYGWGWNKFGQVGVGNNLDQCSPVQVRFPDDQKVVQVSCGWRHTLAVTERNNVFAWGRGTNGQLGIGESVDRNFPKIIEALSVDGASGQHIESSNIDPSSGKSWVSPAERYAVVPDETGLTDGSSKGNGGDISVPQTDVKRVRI

[6] = biological target: T2, UVR8^W233F (Arabidopsis), Q9FN03; assay: SEC; conditions: remark: other sources report otherwise
[7] = biological target: T3, UVR8^W285A (Arabidopsis), Q9FN03; assay: SAXS; conditions: remark: other sources report otherwise
T3 chain: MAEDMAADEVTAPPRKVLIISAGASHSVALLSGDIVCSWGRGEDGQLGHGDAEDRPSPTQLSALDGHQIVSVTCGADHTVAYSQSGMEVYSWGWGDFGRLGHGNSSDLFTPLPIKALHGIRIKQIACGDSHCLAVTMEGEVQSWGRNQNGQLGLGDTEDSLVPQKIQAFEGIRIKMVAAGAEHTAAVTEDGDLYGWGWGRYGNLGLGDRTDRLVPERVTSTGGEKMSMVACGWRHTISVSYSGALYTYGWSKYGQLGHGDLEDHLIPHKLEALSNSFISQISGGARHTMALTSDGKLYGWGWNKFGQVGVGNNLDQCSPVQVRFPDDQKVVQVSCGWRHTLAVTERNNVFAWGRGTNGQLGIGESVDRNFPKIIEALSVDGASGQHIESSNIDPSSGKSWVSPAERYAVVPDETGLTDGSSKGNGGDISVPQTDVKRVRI

SEC = biological target: the molecule itself; assay: SEC
SAXS = biological target: the molecule itself; assay: SAXS

UVR8^R286A (from UniProt Q9FN03 1-440) (natural protein)
stoichiometry N (UVR8^R286A (Arabidopsis)): 2

UVR8^R146A (from UniProt Q9FN03 1-440) (natural protein)
stoichiometry N (UVR8^R146A (Arabidopsis)): 2

B1: UVR8 (UV … LOCUS 8), recombinant Arabidopsis, full-length wild type, Q9FN03 1-440 (natural protein)
chain: MAEDMAADEVTAPPRKVLIISAGASHSVALLSGDIVCSWGRGEDGQLGHGDAEDRPSPTQLSALDGHQIVSVTCGADHTVAYSQSGMEVYSWGWGDFGRLGHGNSSDLFTPLPIKALHGIRIKQIACGDSHCLAVTMEGEVQSWGRNQNGQLGLGDTEDSLVPQKIQAFEGIRIKMVAAGAEHTAAVTEDGDLYGWGWGRYGNLGLGDRTDRLVPERVTSTGGEKMSMVACGWRHTISVSYSGALYTYGWSKYGQLGHGDLEDHLIPHKLEALSNSFISQISGGWRHTMALTSDGKLYGWGWNKFGQVGVGNNLDQCSPVQVRFPDDQKVVQVSCGWRHTLAVTERNNVFAWGRGTNGQLGIGESVDRNFPKIIEALSVDGASGQHIESSNIDPSSGKSWVSPAERYAVVPDETGLTDGSSKGNGGDISVPQTDVKRVRI
stoichiometry N [1]: 2 | stoichiometry N [2]: 2 | stoichiometry N [3]: 2 | stoichiometry N [4]: 2

B2: UVR8^W233F, Q9FN03 1-440 (natural protein)
chain: MAEDMAADEVTAPPRKVLIISAGASHSVALLSGDIVCSWGRGEDGQLGHGDAEDRPSPTQLSALDGHQIVSVTCGADHTVAYSQSGMEVYSWGWGDFGRLGHGNSSDLFTPLPIKALHGIRIKQIACGDSHCLAVTMEGEVQSWGRNQNGQLGLGDTEDSLVPQKIQAFEGIRIKMVAAGAEHTAAVTEDGDLYGWGWGRYGNLGLGDRTDRLVPERVTSTGGEKMSMVACGFRHTISVSYSGALYTYGWSKYGQLGHGDLEDHLIPHKLEALSNSFISQISGGWRHTMALTSDGKLYGWGWNKFGQVGVGNNLDQCSPVQVRFPDDQKVVQVSCGWRHTLAVTERNNVFAWGRGTNGQLGIGESVDRNFPKIIEALSVDGASGQHIESSNIDPSSGKSWVSPAERYAVVPDETGLTDGSSKGNGGDISVPQTDVKRVRI
stoichiometry N [5]: 2 | stoichiometry N [6]: 2

B3: UVR8^W285A, Q9FN03 1-440 (natural protein)
chain: MAEDMAADEVTAPPRKVLIISAGASHSVALLSGDIVCSWGRGEDGQLGHGDAEDRPSPTQLSALDGHQIVSVTCGADHTVAYSQSGMEVYSWGWGDFGRLGHGNSSDLFTPLPIKALHGIRIKQIACGDSHCLAVTMEGEVQSWGRNQNGQLGLGDTEDSLVPQKIQAFEGIRIKMVAAGAEHTAAVTEDGDLYGWGWGRYGNLGLGDRTDRLVPERVTSTGGEKMSMVACGWRHTISVSYSGALYTYGWSKYGQLGHGDLEDHLIPHKLEALSNSFISQISGGARHTMALTSDGKLYGWGWNKFGQVGVGNNLDQCSPVQVRFPDDQKVVQVSCGWRHTLAVTERNNVFAWGRGTNGQLGIGESVDRNFPKIIEALSVDGASGQHIESSNIDPSSGKSWVSPAERYAVVPDETGLTDGSSKGNGGDISVPQTDVKRVRI
stoichiometry N [7]: 2

B4: UVR8^W285F (natural protein, Arabidopsis, UniProt Q9FN03 1-440, looked up)
chain: MAEDMAADEVTAPPRKVLIISAGASHSVALLSGDIVCSWGRGEDGQLGHGDAEDRPSPTQLSALDGHQIVSVTCGADHTVAYSQSGMEVYSWGWGDFGRLGHGNSSDLFTPLPIKALHGIRIKQIACGDSHCLAVTMEGEVQSWGRNQNGQLGLGDTEDSLVPQKIQAFEGIRIKMVAAGAEHTAAVTEDGDLYGWGWGRYGNLGLGDRTDRLVPERVTSTGGEKMSMVACGWRHTISVSYSGALYTYGWSKYGQLGHGDLEDHLIPHKLEALSNSFISQISGGFRHTMALTSDGKLYGWGWNKFGQVGVGNNLDQCSPVQVRFPDDQKVVQVSCGWRHTLAVTERNNVFAWGRGTNGQLGIGESVDRNFPKIIEALSVDGASGQHIESSNIDPSSGKSWVSPAERYAVVPDETGLTDGSSKGNGGDISVPQTDVKRVRI
stoichiometry N (SEC): 2

B5: trypsin-treated UVR8 (crystallographic construct) (domain or fragment, Arabidopsis)
chain: MAEDMAADEVTAPPRKVLIISAGASHSVALLSGDIVCSWGRGEDGQLGHGDAEDRPSPTQLSALDGHQIVSVTCGADHTVAYSQSGMEVYSWGWGDFGRLGHGNSSDLFTPLPIKALHGIRIKQIACGDSHCLAVTMEGEVQSWGRNQNGQLGLGDTEDSLVPQKIQAFEGIRIKMVAAGAEHTAAVTEDGDLYGWGWGRYGNLGLGDRTDRLVPERVTSTGGEKMSMVACGWRHTISVSYSGALYTYGWSKYGQLGHGDLEDHLIPHKLEALSNSFISQISGGWRHTMALTSDGKLYGWGWNKFGQVGVGNNLDQCSPVQVRFPDDQKVVQVSCGWRHTLAVTERNNVFAWGRGTNGQLGIGESVDRNFPKIIEALSVDGASGQHIESSNIDPSSGKSWVSPAE
stoichiometry N (SAXS): 2
